Data reported in article doi:10.1101/2021.01.06.425396.

Target: T1, tetherin (Bst2), endogenous (human (endogenous in HeLa)), Q10589
T1 chain: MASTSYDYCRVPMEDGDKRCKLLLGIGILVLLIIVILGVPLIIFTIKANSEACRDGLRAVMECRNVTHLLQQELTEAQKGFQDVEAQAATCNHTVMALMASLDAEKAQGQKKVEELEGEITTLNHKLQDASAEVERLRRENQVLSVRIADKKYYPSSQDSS
Experiment: non-reducing SDS-PAGE and Western blot
Conditions: remark: other sources report otherwise

B1: tetherin (Bst2), endogenous, Q10589 1-161 (natural protein)
chain: MASTSYDYCRVPMEDGDKRCKLLLGIGILVLLIIVILGVPLIIFTIKANSEACRDGLRAVMECRNVTHLLQQELTEAQKGFQDVEAQAATCNHTVMALMASLDAEKAQGQKKVEELEGEITTLNHKLQDASAEVERLRRENQVLSVRIADKKYYPSSQDSS
B1 gave a stoichiometry N of 2.
